Reference: patent publication US20210032330A1

B1: anti-TIM-3 monoclonal antibody 10-M21-A (antibody, V domains shown)
VH: DVQLQESGPTLVKPSQTLSLTCSVTGDSITSGYWNWIRKFPGNKLEYMGYISYSGSTYYNPSLKSRISIIRDTSKNQYYLQLNSVTTEDTATYYCVSGNHFDYWGQGTTLTVSS
VL: DIQMTQSPSSLSASLGGKVTITCKASQDINRYIAWYQHKPGKGPRLLIHYTSTLQPGIPSRFSGSGSGRDYSFSISNLEPEDIATYYCLQYDNLLFTFGSGTKLEIK
B2: anti-TIM-3 monoclonal antibody 5-K4-A (antibody, V domains shown)
VH: EVQLQQSGPELVKTGASVKISCKASGYSFTAYYIHWVKQSHGKSLEWIGHISCFNGATSYNQKFKGKATFTVDTSSSTAYMQFNSLTSEDSAVYYCARRGDFDRPEFAYWGQGTLVTVSA
VL: DIVLTQSPASLAVSLGQRATISCRASESVEYYGTSLMQWYQQKPGQPPKLLIYAASNVESGVPARFSGSGSGTDFSLNIHPVEEDDIAMYFCQQSRKVPWTFGGGTKLEIK
B3: anti-TIM-3 monoclonal antibody 16-L3-A (antibody, V domains shown)
VH: QVQLQQSGPELVKPGASVKMSCKASGYTFTSYYIHWVKQRPGQGLEWIGWIYPGDGSTKYNEKFKGKTTLTADKSSSTAYMLLSSLTSEDSAIYFCATDRYDVAYWGQGTLVTVSA
VL: EIVLTQSPALMAASPGEKVTITCSVSSSISSSNLHWYQQKSETSPKPWIYGTSNLASGVPVRFSGSGSGTSYSLTISSMEAEDAATYYCQQWSSYPLTFGAGTKLELK
B4: anti-TIM-3 monoclonal antibody 18-N1-A (antibody, V domains shown)
VH: QVQLQQPGAELVRPGVSVKLSCKASGYTFTSYWMHWIKQRPEQGLERIGEINPSNGGTNYNEKFKNKATLTVDKSSSTAYMQLSSLTSEDSAVYYCARSYYTYDAIDYWGQGTSVTVSS
VL: DIVMSQSPSSLAVSAGEKVTMSCKSSQSLLNSRTRKNYLAWYQQKPGQSPKLLIYWASTRESGVPDRFTGSGSGTDFTLTISSVQAEDLAVYYCKQSYNLYTFGGGTKLEIK
B5: anti-TIM-3 monoclonal antibody 6-I13-A (antibody, V domains shown)
VH: EVQLQQSGPELEKPGASVKISCKASGYSFTGYNMNWVKQSNGKSLEWIGNIDPYYGVTSYNQKFKGKATLTVDKSSSTAYMQLKSLTSEDSAVYYCASYSLTYDGYYPFAYWGQGTLVTVSA
VL: DIVLTQSPASLAVSLGQRATISCRASKSVSTSGYSYMHWYQQKPGQPPKLLIYLASNLESGVPARFSGSGSGTDFTLNIHPVEEEDAATYYCQHSRELPYTFGGGTKLEIK
B6: anti-TIM-3 monoclonal antibody 10-O15-A (antibody, V domains shown)
VH: QVQLQQSGADLVRPGASVKLSCKALGYTFTDYEMHWVKQTPVHGLEWIGAIHPGSGGTAYNQKFKGKATLTADKSSSTAYMELSSLTSEDSAVYFCSRSYYRYTGYFDVWGAGTTVTVSS
VL: DIVLTQSPASLAVSLGQRATISCRASKSVSASGYSYMHWYQQKPGQPPKLLIYLASNLESGVPARFSGSGSGTDFTLNVHPVEEEDAATYYCQHSRELPFTFGSGTKLEIK
B7: anti-TIM-3 monoclonal antibody 16-K5-A (antibody, V domains shown)
VH: QVQLQQSGAELVKPGASVKLSCKASGYTFTSSDINWVRQRPEQGLEWIGWIFPGDGSTKYNEKFKGKATLTTDKSSSTAYMQLSRLTSEDSAVYFCARGLDYWGQGTTLTVSS
VL: DIKMTQSPSSMYASLGERVTITCKASQDINSYLGWFQQKPGKSPKTLIYRADRLVDGVPSRFSGSGSGQDYSLTISSLEYEDMGIYYCLQYDEFPLTFGAGTKLELK

The binders below were run against cynomolgus TIM-3 (cynomolgus) (assay: BLI (OCTET Red96), mAb on anti-mouse Fc biosensor, antigen in solution, 1:1 model).
A Kd of 7.5 nM was found for B1 in this work.
A Kd of 6.7 nM was found for B2 in this work.
A Kd of 6.5 nM was found for B3 in this work.
A Kd of 14 nM was found for B4 in this work.
A Kd of 5.2 nM was found for B5 in this work.
A Kd of 2.9 nM was found for B6 in this work.
A Kd of 6.4 nM was found for B7 in this work.
